Starred links: 1 amine or outer side, 2 acyl side, 3 side chain; linkers in the order of their positions; H or OH if unused. Non-standard residues stand in square brackets, D forms with d. Groups on a side chain read outwards from the residue. No end group written: not given here. *: point of attachment. C20 diacid = O=C(O)CCCCCCCCCCCCCCCCCCC(=O)*; C18 diacid = O=C(O)CCCCCCCCCCCCCCCCC(=O)*; γGlu = O=C(O)[C@H](CCC(=O)[*:2])N[*:1]; Palmitoyl = CCCCCCCCCCCCCCCC(=O)*; AEEA = NCCOCCOCC(=O)O; Aib = CC(C)(N)C(=O)O
B1: SEQ ID NO: 168 (peptide)
peptide: Ac-IVLSLD[dV]PIELK([AEEA-AEEA-γGlu-C18 diacid])QILLEQERQK[Aib]QREQAEKNEQILEQV-NH2
SMILES: CC[C@H](C)[C@H](NC(C)=O)C(=O)N[C@H](C(=O)N[C@@H](CC(C)C)C(=O)N[C@@H](CO)C(=O)N[C@@H](CC(C)C)C(=O)N[C@@H](CC(=O)O)C(=O)N[C@@H](C(=O)N1CCC[C@H]1C(=O)N[C@H](C(=O)N[C@@H](CCC(=O)O)C(=O)N[C@@H](CC(C)C)C(=O)N[C@@H](CCCCNC(=O)COCCOCCNC(=O)COCCOCCNC(=O)CC[C@H](NC(=O)CCCCCCCCCCCCCCCCC(=O)O)C(=O)O)C(=O)N[C@@H](CCC(N)=O)C(=O)N[C@H](C(=O)N[C@@H](CC(C)C)C(=O)N[C@@H](CC(C)C)C(=O)N[C@@H](CCC(=O)O)C(=O)N[C@@H](CCC(N)=O)C(=O)N[C@@H](CCC(=O)O)C(=O)N[C@@H](CCCNC(=N)N)C(=O)N[C@@H](CCC(N)=O)C(=O)N[C@@H](CCCCN)C(=O)NC(C)(C)C(=O)N[C@@H](CCC(N)=O)C(=O)N[C@@H](CCCNC(=N)N)C(=O)N[C@@H](CCC(=O)O)C(=O)N[C@@H](CCC(N)=O)C(=O)N[C@@H](C)C(=O)N[C@@H](CCC(=O)O)C(=O)N[C@@H](CCCCN)C(=O)N[C@@H](CC(N)=O)C(=O)N[C@@H](CCC(=O)O)C(=O)N[C@@H](CCC(N)=O)C(=O)N[C@H](C(=O)N[C@@H](CC(C)C)C(=O)N[C@@H](CCC(=O)O)C(=O)N[C@@H](CCC(N)=O)C(=O)N[C@H](C(N)=O)C(C)C)[C@@H](C)CC)[C@@H](C)CC)[C@@H](C)CC)C(C)C)C(C)C
B2: SEQ ID NO: 169 (peptide)
peptide: Ac-IVLSLD[dV]PIKLK([AEEA-AEEA-γGlu-C18 diacid])QILLEQERQE[Aib]QREQAEKNEQILEQV-NH2
SMILES: CC[C@H](C)[C@H](NC(C)=O)C(=O)N[C@H](C(=O)N[C@@H](CC(C)C)C(=O)N[C@@H](CO)C(=O)N[C@@H](CC(C)C)C(=O)N[C@@H](CC(=O)O)C(=O)N[C@@H](C(=O)N1CCC[C@H]1C(=O)N[C@H](C(=O)N[C@@H](CCCCN)C(=O)N[C@@H](CC(C)C)C(=O)N[C@@H](CCCCNC(=O)COCCOCCNC(=O)COCCOCCNC(=O)CC[C@H](NC(=O)CCCCCCCCCCCCCCCCC(=O)O)C(=O)O)C(=O)N[C@@H](CCC(N)=O)C(=O)N[C@H](C(=O)N[C@@H](CC(C)C)C(=O)N[C@@H](CC(C)C)C(=O)N[C@@H](CCC(=O)O)C(=O)N[C@@H](CCC(N)=O)C(=O)N[C@@H](CCC(=O)O)C(=O)N[C@@H](CCCNC(=N)N)C(=O)N[C@@H](CCC(N)=O)C(=O)N[C@@H](CCC(=O)O)C(=O)NC(C)(C)C(=O)N[C@@H](CCC(N)=O)C(=O)N[C@@H](CCCNC(=N)N)C(=O)N[C@@H](CCC(=O)O)C(=O)N[C@@H](CCC(N)=O)C(=O)N[C@@H](C)C(=O)N[C@@H](CCC(=O)O)C(=O)N[C@@H](CCCCN)C(=O)N[C@@H](CC(N)=O)C(=O)N[C@@H](CCC(=O)O)C(=O)N[C@@H](CCC(N)=O)C(=O)N[C@H](C(=O)N[C@@H](CC(C)C)C(=O)N[C@@H](CCC(=O)O)C(=O)N[C@@H](CCC(N)=O)C(=O)N[C@H](C(N)=O)C(C)C)[C@@H](C)CC)[C@@H](C)CC)[C@@H](C)CC)C(C)C)C(C)C
B3: SEQ ID NO: 170 (peptide)
peptide: Ac-IVLSLD[dV]PIELK([AEEA-AEEA-γGlu-C18 diacid])QILLEQERQE[Aib]QREQAEKNEQILEQV-NH2
SMILES: CC[C@H](C)[C@H](NC(C)=O)C(=O)N[C@H](C(=O)N[C@@H](CC(C)C)C(=O)N[C@@H](CO)C(=O)N[C@@H](CC(C)C)C(=O)N[C@@H](CC(=O)O)C(=O)N[C@@H](C(=O)N1CCC[C@H]1C(=O)N[C@H](C(=O)N[C@@H](CCC(=O)O)C(=O)N[C@@H](CC(C)C)C(=O)N[C@@H](CCCCNC(=O)COCCOCCNC(=O)COCCOCCNC(=O)CC[C@H](NC(=O)CCCCCCCCCCCCCCCCC(=O)O)C(=O)O)C(=O)N[C@@H](CCC(N)=O)C(=O)N[C@H](C(=O)N[C@@H](CC(C)C)C(=O)N[C@@H](CC(C)C)C(=O)N[C@@H](CCC(=O)O)C(=O)N[C@@H](CCC(N)=O)C(=O)N[C@@H](CCC(=O)O)C(=O)N[C@@H](CCCNC(=N)N)C(=O)N[C@@H](CCC(N)=O)C(=O)N[C@@H](CCC(=O)O)C(=O)NC(C)(C)C(=O)N[C@@H](CCC(N)=O)C(=O)N[C@@H](CCCNC(=N)N)C(=O)N[C@@H](CCC(=O)O)C(=O)N[C@@H](CCC(N)=O)C(=O)N[C@@H](C)C(=O)N[C@@H](CCC(=O)O)C(=O)N[C@@H](CCCCN)C(=O)N[C@@H](CC(N)=O)C(=O)N[C@@H](CCC(=O)O)C(=O)N[C@@H](CCC(N)=O)C(=O)N[C@H](C(=O)N[C@@H](CC(C)C)C(=O)N[C@@H](CCC(=O)O)C(=O)N[C@@H](CCC(N)=O)C(=O)N[C@H](C(N)=O)C(C)C)[C@@H](C)CC)[C@@H](C)CC)[C@@H](C)CC)C(C)C)C(C)C
B4: SEQ ID NO: 171 (peptide)
peptide: IVLSLD[dV]PIKLK([AEEA-AEEA-γGlu-γGlu-C18 diacid])QILLKQERQK[Aib]QREQAEKNKQILAQV-NH2
modifications: N-terminus assumed
SMILES: CC[C@H](C)[C@H](N)C(=O)N[C@H](C(=O)N[C@@H](CC(C)C)C(=O)N[C@@H](CO)C(=O)N[C@@H](CC(C)C)C(=O)N[C@@H](CC(=O)O)C(=O)N[C@@H](C(=O)N1CCC[C@H]1C(=O)N[C@H](C(=O)N[C@@H](CCCCN)C(=O)N[C@@H](CC(C)C)C(=O)N[C@@H](CCCCNC(=O)COCCOCCNC(=O)COCCOCCNC(=O)CC[C@H](NC(=O)CC[C@H](NC(=O)CCCCCCCCCCCCCCCCC(=O)O)C(=O)O)C(=O)O)C(=O)N[C@@H](CCC(N)=O)C(=O)N[C@H](C(=O)N[C@@H](CC(C)C)C(=O)N[C@@H](CC(C)C)C(=O)N[C@@H](CCCCN)C(=O)N[C@@H](CCC(N)=O)C(=O)N[C@@H](CCC(=O)O)C(=O)N[C@@H](CCCNC(=N)N)C(=O)N[C@@H](CCC(N)=O)C(=O)N[C@@H](CCCCN)C(=O)NC(C)(C)C(=O)N[C@@H](CCC(N)=O)C(=O)N[C@@H](CCCNC(=N)N)C(=O)N[C@@H](CCC(=O)O)C(=O)N[C@@H](CCC(N)=O)C(=O)N[C@@H](C)C(=O)N[C@@H](CCC(=O)O)C(=O)N[C@@H](CCCCN)C(=O)N[C@@H](CC(N)=O)C(=O)N[C@@H](CCCCN)C(=O)N[C@@H](CCC(N)=O)C(=O)N[C@H](C(=O)N[C@@H](CC(C)C)C(=O)N[C@@H](C)C(=O)N[C@@H](CCC(N)=O)C(=O)N[C@H](C(N)=O)C(C)C)[C@@H](C)CC)[C@@H](C)CC)[C@@H](C)CC)C(C)C)C(C)C
B5: SEQ ID NO: 20 (peptide)
peptide: IVLSLD[dV]PTKLK([γGlu-Palmitoyl])QKLLKQERQRK[Aib]REQAEKNKRILERV-NH2
modifications: N-terminus assumed
SMILES: CCCCCCCCCCCCCCCC(=O)N[C@@H](CCC(=O)NCCCC[C@H](NC(=O)[C@H](CC(C)C)NC(=O)[C@H](CCCCN)NC(=O)[C@@H](NC(=O)[C@@H]1CCCN1C(=O)[C@H](NC(=O)[C@H](CC(=O)O)NC(=O)[C@H](CC(C)C)NC(=O)[C@H](CO)NC(=O)[C@H](CC(C)C)NC(=O)[C@@H](NC(=O)[C@@H](N)[C@@H](C)CC)C(C)C)C(C)C)[C@@H](C)O)C(=O)N[C@@H](CCC(N)=O)C(=O)N[C@@H](CCCCN)C(=O)N[C@@H](CC(C)C)C(=O)N[C@@H](CC(C)C)C(=O)N[C@@H](CCCCN)C(=O)N[C@@H](CCC(N)=O)C(=O)N[C@@H](CCC(=O)O)C(=O)N[C@@H](CCCNC(=N)N)C(=O)N[C@@H](CCC(N)=O)C(=O)N[C@@H](CCCNC(=N)N)C(=O)N[C@@H](CCCCN)C(=O)NC(C)(C)C(=O)N[C@@H](CCCNC(=N)N)C(=O)N[C@@H](CCC(=O)O)C(=O)N[C@@H](CCC(N)=O)C(=O)N[C@@H](C)C(=O)N[C@@H](CCC(=O)O)C(=O)N[C@@H](CCCCN)C(=O)N[C@@H](CC(N)=O)C(=O)N[C@@H](CCCCN)C(=O)N[C@@H](CCCNC(=N)N)C(=O)N[C@H](C(=O)N[C@@H](CC(C)C)C(=O)N[C@@H](CCC(=O)O)C(=O)N[C@@H](CCCNC(=N)N)C(=O)N[C@H](C(N)=O)C(C)C)[C@@H](C)CC)C(=O)O
B6: SEQ ID NO: 172 (peptide)
peptide: IVLSLD[dV]PIKLK([AEEA-AEEA-γGlu-γGlu-C20 diacid])QILLKQERQK[Aib]QREQAEKNKQILAQV-NH2
modifications: N-terminus assumed
SMILES: CC[C@H](C)[C@H](N)C(=O)N[C@H](C(=O)N[C@@H](CC(C)C)C(=O)N[C@@H](CO)C(=O)N[C@@H](CC(C)C)C(=O)N[C@@H](CC(=O)O)C(=O)N[C@@H](C(=O)N1CCC[C@H]1C(=O)N[C@H](C(=O)N[C@@H](CCCCN)C(=O)N[C@@H](CC(C)C)C(=O)N[C@@H](CCCCNC(=O)COCCOCCNC(=O)COCCOCCNC(=O)CC[C@H](NC(=O)CC[C@H](NC(=O)CCCCCCCCCCCCCCCCCCC(=O)O)C(=O)O)C(=O)O)C(=O)N[C@@H](CCC(N)=O)C(=O)N[C@H](C(=O)N[C@@H](CC(C)C)C(=O)N[C@@H](CC(C)C)C(=O)N[C@@H](CCCCN)C(=O)N[C@@H](CCC(N)=O)C(=O)N[C@@H](CCC(=O)O)C(=O)N[C@@H](CCCNC(=N)N)C(=O)N[C@@H](CCC(N)=O)C(=O)N[C@@H](CCCCN)C(=O)NC(C)(C)C(=O)N[C@@H](CCC(N)=O)C(=O)N[C@@H](CCCNC(=N)N)C(=O)N[C@@H](CCC(=O)O)C(=O)N[C@@H](CCC(N)=O)C(=O)N[C@@H](C)C(=O)N[C@@H](CCC(=O)O)C(=O)N[C@@H](CCCCN)C(=O)N[C@@H](CC(N)=O)C(=O)N[C@@H](CCCCN)C(=O)N[C@@H](CCC(N)=O)C(=O)N[C@H](C(=O)N[C@@H](CC(C)C)C(=O)N[C@@H](C)C(=O)N[C@@H](CCC(N)=O)C(=O)N[C@H](C(N)=O)C(C)C)[C@@H](C)CC)[C@@H](C)CC)[C@@H](C)CC)C(C)C)C(C)C

Each binder was assayed against human corticotropin-releasing factor 2α (CRF2 α receptor) (human), Q13324 (assay: cell-based or functional assay).
Chain of human corticotropin-releasing factor 2α (CRF2 α receptor) (human), Q13324 (Q13324 20-411): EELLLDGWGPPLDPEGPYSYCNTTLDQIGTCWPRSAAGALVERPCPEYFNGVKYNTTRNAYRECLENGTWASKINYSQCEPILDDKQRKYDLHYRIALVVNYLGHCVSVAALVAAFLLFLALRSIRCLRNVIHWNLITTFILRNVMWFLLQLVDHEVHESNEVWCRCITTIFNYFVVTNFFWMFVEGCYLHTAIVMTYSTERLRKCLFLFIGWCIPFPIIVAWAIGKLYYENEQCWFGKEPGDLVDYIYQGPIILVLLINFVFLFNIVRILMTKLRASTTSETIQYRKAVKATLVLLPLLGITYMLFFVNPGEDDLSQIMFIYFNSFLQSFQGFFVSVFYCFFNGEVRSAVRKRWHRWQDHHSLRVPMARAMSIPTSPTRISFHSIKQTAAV
B1 was tested, and the EC50 [nM], 0% HSA was 13.9 nM. For B2, the EC50 [nM], 0% HSA was 4.01 nM and the EC50 [nM], 0.1% HSA was 98.1 nM. In the case of B3, the EC50 [nM], 0% HSA is reported as 62.1 nM. With B4 the EC50 [nM], 0% HSA was 0.17 nM and the EC50 [nM], 0.1% HSA was 2.62 nM. B5 showed an EC50 [nM], 0% HSA of 0.01 nM. B6 showed an EC50 [nM], 0% HSA of 0.04 nM and an EC50 [nM], 0.1% HSA of 2.76 nM.

From US12679878B2, “CRF2 receptor agonists and their use in therapy” (SANOFI, priority 2020, dated 2026)
